# Reference: patent publication US20050186662A1
# Biological target: neonatal Fc receptor (FcRn) of the neonatal rat small intestine (rat) (UniProt P13599)
# Experiment: cell-based or functional assay
# UniProt P13599, sequence (P13599 23-366, form in doubt): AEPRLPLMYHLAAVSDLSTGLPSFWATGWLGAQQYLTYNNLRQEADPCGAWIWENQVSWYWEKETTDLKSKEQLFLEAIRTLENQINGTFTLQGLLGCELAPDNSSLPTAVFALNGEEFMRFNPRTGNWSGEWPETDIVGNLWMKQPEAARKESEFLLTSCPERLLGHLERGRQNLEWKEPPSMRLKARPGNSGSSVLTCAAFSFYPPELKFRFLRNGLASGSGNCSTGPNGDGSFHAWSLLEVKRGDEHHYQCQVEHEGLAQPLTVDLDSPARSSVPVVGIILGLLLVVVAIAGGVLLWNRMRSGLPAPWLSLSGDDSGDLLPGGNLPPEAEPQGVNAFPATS
row,"reduction in transport (oral delivery of 125I-labelled protein into neonatal rat serum) in the presence of 300-fold excess unlabeled human IgG1, by phosphorimage analysis [%]",Substance
1,53,heterodimer FSH-Fc (Fc fusion)
2,83,single-chain FSH-Fc (from UniProt P01225 19-129; P01215 25-116) (Fc fusion)
